{"source": "paper PMC11095200", "biological_target": "StAR (UniProt P51557)", "assay": "co-immunoprecipitation and western blot", "details": "reference: wild-type 14-3-3γ; sites S71", "data": [{"substance": "14-3-3γ (from UniProt P61982) S71A 14-3-3γ", "values": [{"measurement": "binding against the reference", "value": "weaker"}]}]}
